We go through five molecules from publication PMC7617965, “Interaction with AK2A links AIFM1 to cellular energy metabolism” (Molecular cell, 2025).

No end group written: not given here.

For assay [1], the target named is endogenous AIFM1 (human (endogenous in HEK293)) (UniProt O95831). Nature of the assay: SEC; native lysates of HEK293 cells (WT, AIFM1 KO, AIFM1 KO with AIFM1-HA, AK2 KO with AK2A or AK2B; cycloheximide 4 h in one panel) on HiLoad 16/600 Superdex 200; fractions analysed by immunoblot, in part after a thiol shift with mmPEG24. (In gel filtration, larger molecules generally elute earlier.)

The target of a further assay is MIA40 (Homo sapiens) (UniProt Q8N4Q1). The note with it: cited from earlier work.
Assay [2] addresses T1, AIFM1(103-613) (human, UniProt O95831 103-613). The experiment in a line: cell-based or functional assay.
The target of assay [3] is T1, AIFM1(103-613). Nature of the assay: SEC; AIFM1 incubated with AK2A, MIA40 or the interaction site peptides with NADH; unbound NADH removed by gel filtration; samples at 0 and 7 h analysed by gel filtration, absorbance at 280 nm. The note with it: both partners purified.
Assay [4] concerns the target T1, AIFM1(103-613). Nature of the assay: SEC; purified proteins, AIFM1 to AK2 or MIA40 1:2 to 1:4, 100 mM NaCl, 20 mM Tris/Cl pH 7.4, with 0.1 mM NADH, 20 min, 4°C, Superdex 200. The note with it: both partners purified.

Take “adenylate kinase 2 (AK2), endogenous (from UniProt P54819 1-239) (enzyme)”: the percent of AK2 in the fractions of the complex in assay [1] was found to be 5%. Consider AIFM1 (from UniProt O95831), for which the Kd – broadly, a measure of binding affinity in units of concentration – in the assay with MIA40 (Homo sapiens) is 180 nM.

B1: AK2A WT peptide (peptide)
peptide: ATSKDLVMFI-NH2
notes: C-terminus of AK2 isoform A; serine stands where AK2A bears C232; also called AK2A peptide; source: synthetic peptide
As for B1, the “apparent kcat of the NADH:DCIP oxidoreductase activity of AIFM1 with the peptide (3.3 μM); AIFM1 alone 0.37 s^−1 (DMSO)” value in the assay with AIFM1(103-613) [2] stood at 0.71 s⁻¹. In addition, in the assay with AIFM1(103-613) [3], the “half-life (t1/2) of the complex after removal of excess NADH” value (shortened to “half-life (t1/2) of the complex”) was greater than 7 h.

B2: MIA40 WT peptide (peptide)
peptide: SYSRQEGKDRIIFVTKEDHETPSSAELVA-NH2
notes: N-terminal region of MIA40 (CHCHD4); serine stands at position 4 where MIA40 has C4; also called MIA40 peptide; source: synthetic peptide
With B2, the “apparent kcat of the NADH:DCIP oxidoreductase activity of AIFM1 with the peptide (3.3 μM); AIFM1 alone 0.50 s^−1 (H2O)” value in the assay with AIFM1(103-613) [2] was determined as 0.89 s⁻¹. Also, the “half-life (t1/2) of the complex” value with AIFM1(103-613) [3] was greater than 7 h.

B3: MIA40 C4S,C53S,C55S (natural protein, UniProt Q8N4Q1 1-142, looked up)
chain: MSYSRQEGKDRIIFVTKEDHETPSSAELVADDPNDPYEEHGLILPNGNINWNSPSLGGMASGPCGEQFKSAFSCFHYSTEEIKGSDCVDQFRAMQECMQKYPDLYPQEDEDEEEEREKKPAEQAEETAPIEATATKEEEGSS
notes: MIA40 (CHCHD4) with C4S, C53S and C55S; Only aa 2-20 are seen in the cryo-EM map; also called MIA40 SPS; purified MIA40; source: E. coli Rosetta2 (DE3), purified (Ni Sepharose)
For B3, in the assay with AIFM1(103-613) [4], the stoichiometry N – broadly, the number of molecules, sites or subunits per partner or assembly – amounted to 2 per AIFM1 dimer. Also, the “half-life (t1/2) of the complex” value in the assay with AIFM1(103-613) [3] was greater than 7 h.
